Results from publication PMC9482650, “Quantitative fragmentomics allow affinity mapping of interactomes” (Nature Communications, 2022).
Substitutions are numbered along the chain they refer to.

T1: MPP2, Q14168
T1 sequence (Q14168 180-250, limits assumed, looked up): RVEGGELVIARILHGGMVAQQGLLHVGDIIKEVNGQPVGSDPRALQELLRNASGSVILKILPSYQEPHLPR

T2: GRIP1_4, Q9Y3R0
T2 sequence (Q9Y3R0 467-571, limits assumed, looked up): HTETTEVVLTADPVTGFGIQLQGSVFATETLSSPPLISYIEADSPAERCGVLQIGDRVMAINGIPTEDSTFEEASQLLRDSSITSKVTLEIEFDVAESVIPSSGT

T3: PCLO, Q9Y6V0
T3 sequence (Q9Y6V0 4491-4600, limits assumed, looked up): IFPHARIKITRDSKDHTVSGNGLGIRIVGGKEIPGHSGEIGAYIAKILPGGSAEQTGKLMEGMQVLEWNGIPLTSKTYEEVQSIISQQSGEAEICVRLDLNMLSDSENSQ

T4: ARHGAP21, Q5T5U3
T4 sequence (Q5T5U3 45-169, limits assumed, looked up): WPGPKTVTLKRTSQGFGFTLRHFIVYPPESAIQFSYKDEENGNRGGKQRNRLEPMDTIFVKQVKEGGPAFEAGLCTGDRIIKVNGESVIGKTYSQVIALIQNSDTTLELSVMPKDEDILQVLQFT

T5: NHERF3_3, Q5T2W1
T5 sequence (Q5T2W1 238-333, limits assumed, looked up): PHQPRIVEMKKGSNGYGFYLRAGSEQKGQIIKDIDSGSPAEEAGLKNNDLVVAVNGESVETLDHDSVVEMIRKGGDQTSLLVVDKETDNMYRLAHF

T6: APBA1_2, Q02410
T6 sequence (Q02410 742-832, limits assumed, looked up): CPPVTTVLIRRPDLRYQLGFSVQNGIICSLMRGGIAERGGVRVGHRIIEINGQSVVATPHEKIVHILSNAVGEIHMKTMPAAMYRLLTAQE

T7: MPP6, Q9NZW5
T7 sequence (Q9NZW5 125-219, limits assumed, looked up): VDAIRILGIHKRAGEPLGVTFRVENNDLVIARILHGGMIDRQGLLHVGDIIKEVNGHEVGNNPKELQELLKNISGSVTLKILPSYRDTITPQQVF

T8: SNTA1, Q13424
T8 sequence (Q13424 82-180, limits assumed, looked up): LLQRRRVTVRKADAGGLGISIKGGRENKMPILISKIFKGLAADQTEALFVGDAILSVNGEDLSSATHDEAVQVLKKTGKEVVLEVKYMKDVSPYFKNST

T9: APBA2_2, Q99767
T9 sequence (Q99767 654-744, limits assumed, looked up): T6 sequence (Q02410 742-832, limits assumed, looked up) with R10K, R15K, P59A, H65Q, I66A, A70S, Y84F, A89G


What follows are binders tested against CASK, O14936 (assay: holdup assay). Details: plain residues with an end cap or a label only (N-terminal biotin on a linker: ado-ado).
Sequence of CASK, O14936 (O14936 487-570): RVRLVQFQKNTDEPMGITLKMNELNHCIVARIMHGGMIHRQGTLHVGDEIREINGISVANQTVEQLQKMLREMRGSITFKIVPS
Design: key: below the threshold = too weak to quantify, mostly under pKd 3.1 to 4
QFTLRHWLKV [SLC6A3, Q01959] was tested, and the pKd was “below the threshold”. RELVMRVTTV [MARCHF4, Q9P2E8] was tested, and the pKd was “below the threshold”.

Each binder was assayed against ARHGEF12, Q9NZN5-2 (assay: holdup assay). Details: plain residues with an end cap or a label only (N-terminal biotin on a linker: ado-ado).
Sequence of ARHGEF12, Q9NZN5-2 (Q9NZN5 other isoform, or with tags, fused parts or gaps): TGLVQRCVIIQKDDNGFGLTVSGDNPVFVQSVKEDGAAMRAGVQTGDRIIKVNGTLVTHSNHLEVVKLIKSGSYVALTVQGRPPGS
Design: key: below the threshold = too weak to quantify, mostly under pKd 3.1 to 4
In the case of QFTLRHWLKV [SLC6A3, Q01959], the pKd is reported as “below the threshold”. Binder RELVMRVTTV [MARCHF4, Q9P2E8] has a pKd of 4.86.

The binders below were run against GRID2IP_1, A4D2P6 (assay: holdup assay). Details: plain residues with an end cap or a label only (N-terminal biotin on a linker: ado-ado).
Sequence of GRID2IP_1, A4D2P6 (A4D2P6 1-87): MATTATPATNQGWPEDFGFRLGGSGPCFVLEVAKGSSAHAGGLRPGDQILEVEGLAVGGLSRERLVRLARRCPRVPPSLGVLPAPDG
Design: key: below the threshold = too weak to quantify, mostly under pKd 3.1 to 4
In the case of QFTLRHWLKV [SLC6A3, Q01959], the pKd is reported as “below the threshold”. For RELVMRVTTV [MARCHF4, Q9P2E8], the pKd was “below the threshold”.

These binders were tested against DLG1_1, Q12959 (assay: holdup assay). Details: plain residues with an end cap or a label only (N-terminal biotin on a linker: ado-ado).
Design: key: below the threshold = too weak to quantify, mostly under pKd 3.1 to 4
With QFTLRHWLKV [SLC6A3, Q01959] the pKd was “below the threshold”. Work on RELVMRVTTV [MARCHF4, Q9P2E8] yielded a pKd of 5.19.

The binders below were run against T1, MPP2, Q14168 (assay: holdup assay). Details: plain residues with an end cap or a label only (N-terminal biotin on a linker: ado-ado).
Design: key: below the threshold = too weak to quantify, mostly under pKd 3.1 to 4
For QFTLRHWLKV [SLC6A3, Q01959], the pKd was 3.87. RELVMRVTTV [MARCHF4, Q9P2E8] was tested, and the pKd was “below the threshold”.

These binders were tested against FRMPD4, Q14CM0 (assay: holdup assay). Details: plain residues with an end cap or a label only (N-terminal biotin on a linker: ado-ado).
Sequence of FRMPD4, Q14CM0 (Q14CM0 67-160): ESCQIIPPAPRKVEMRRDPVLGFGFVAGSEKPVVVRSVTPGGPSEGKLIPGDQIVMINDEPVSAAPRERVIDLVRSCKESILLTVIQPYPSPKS
Design: key: below the threshold = too weak to quantify, mostly under pKd 3.1 to 4
For QFTLRHWLKV [SLC6A3, Q01959], the pKd was “below the threshold”. In the case of RELVMRVTTV [MARCHF4, Q9P2E8], the pKd is reported as “below the threshold”.

What follows are binders tested against T2, GRIP1_4, Q9Y3R0 (assay: holdup assay). Details: plain residues with an end cap or a label only (N-terminal biotin on a linker: ado-ado).
Design: key: below the threshold = too weak to quantify, mostly under pKd 3.1 to 4
For QFTLRHWLKV [SLC6A3, Q01959], the pKd was “below the threshold”. With RELVMRVTTV [MARCHF4, Q9P2E8] the pKd was “below the threshold”.

What follows are binders tested against T3, PCLO, Q9Y6V0 (assay: holdup assay). Details: plain residues with an end cap or a label only (N-terminal biotin on a linker: ado-ado).
Design: key: below the threshold = too weak to quantify, mostly under pKd 3.1 to 4
With QFTLRHWLKV [SLC6A3, Q01959] the pKd was “below the threshold”. In the case of RELVMRVTTV [MARCHF4, Q9P2E8], the pKd is reported as “below the threshold”.

The binders below were run against DLG4_1, P78352 (assay: holdup assay). Details: plain residues with an end cap or a label only (N-terminal biotin on a linker: ado-ado).
Sequence of DLG4_1, P78352 (P78352 62-152): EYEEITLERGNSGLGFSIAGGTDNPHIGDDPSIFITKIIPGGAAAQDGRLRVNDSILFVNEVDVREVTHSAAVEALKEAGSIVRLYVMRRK
Design: key: below the threshold = too weak to quantify, mostly under pKd 3.1 to 4
QFTLRHWLKV [SLC6A3, Q01959] was tested, and the pKd was “below the threshold”. Binder RELVMRVTTV [MARCHF4, Q9P2E8] has a pKd of 5.03.

The binders below were run against MAGI2_4, Q86UL8 (assay: holdup assay). Details: plain residues with an end cap or a label only (N-terminal biotin on a linker: ado-ado).
Sequence of MAGI2_4, Q86UL8 (Q86UL8 772-865): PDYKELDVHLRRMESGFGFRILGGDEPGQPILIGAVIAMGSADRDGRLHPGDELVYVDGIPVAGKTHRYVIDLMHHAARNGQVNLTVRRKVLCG
Design: key: below the threshold = too weak to quantify, mostly under pKd 3.1 to 4
QFTLRHWLKV [SLC6A3, Q01959] gave a pKd of 3.5. Work on RELVMRVTTV [MARCHF4, Q9P2E8] yielded a pKd of 4.82.

Each binder was assayed against T4, ARHGAP21, Q5T5U3 (assay: holdup assay). Details: plain residues with an end cap or a label only (N-terminal biotin on a linker: ado-ado).
Design: key: below the threshold = too weak to quantify, mostly under pKd 3.1 to 4
QFTLRHWLKV [SLC6A3, Q01959] gave a pKd of 4.09. RELVMRVTTV [MARCHF4, Q9P2E8] was tested, and the pKd was “below the threshold”.

What follows are binders tested against LIMK2, P53671 (assay: holdup assay). Details: plain residues with an end cap or a label only (N-terminal biotin on a linker: ado-ado).
Sequence of LIMK2, P53671 (P53671 143-248): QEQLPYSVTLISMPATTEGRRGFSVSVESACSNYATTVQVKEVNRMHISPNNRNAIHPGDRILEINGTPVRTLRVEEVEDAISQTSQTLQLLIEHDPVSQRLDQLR
Design: key: below the threshold = too weak to quantify, mostly under pKd 3.1 to 4
In the case of QFTLRHWLKV [SLC6A3, Q01959], the pKd is reported as “below the threshold”. With RELVMRVTTV [MARCHF4, Q9P2E8] the pKd was “below the threshold”.

What follows are binders tested against DLG2_2, Q15700 (assay: holdup assay). Details: plain residues with an end cap or a label only (N-terminal biotin on a linker: ado-ado).
Sequence of DLG2_2, Q15700 (Q15700 189-283): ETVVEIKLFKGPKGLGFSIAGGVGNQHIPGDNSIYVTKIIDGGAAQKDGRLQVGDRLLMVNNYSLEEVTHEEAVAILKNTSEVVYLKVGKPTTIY
Design: key: below the threshold = too weak to quantify, mostly under pKd 3.1 to 4
With QFTLRHWLKV [SLC6A3, Q01959] the pKd was “below the threshold”. Binder RELVMRVTTV [MARCHF4, Q9P2E8] has a pKd of 5.2.

What follows are binders tested against FRMPD2_1, Q68DX3 (assay: holdup assay). Details: plain residues with an end cap or a label only (N-terminal biotin on a linker: ado-ado).
Sequence of FRMPD2_1, Q68DX3 (Q68DX3 770-861): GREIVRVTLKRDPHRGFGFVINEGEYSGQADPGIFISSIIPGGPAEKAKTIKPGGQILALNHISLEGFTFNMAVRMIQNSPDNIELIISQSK
Design: key: below the threshold = too weak to quantify, mostly under pKd 3.1 to 4
With QFTLRHWLKV [SLC6A3, Q01959] the pKd was 3.71. Binder RELVMRVTTV [MARCHF4, Q9P2E8] has a pKd of 3.48.

Each binder was assayed against MAGI2_6, Q86UL8 (assay: holdup assay). Details: plain residues with an end cap or a label only (N-terminal biotin on a linker: ado-ado).
Sequence of MAGI2_6, Q86UL8 (Q86UL8 1141-1229): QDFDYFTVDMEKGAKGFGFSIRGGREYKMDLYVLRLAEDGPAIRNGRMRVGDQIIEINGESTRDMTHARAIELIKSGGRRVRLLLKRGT
Design: key: below the threshold = too weak to quantify, mostly under pKd 3.1 to 4
QFTLRHWLKV [SLC6A3, Q01959] was tested, and the pKd was “below the threshold”. With RELVMRVTTV [MARCHF4, Q9P2E8] the pKd was 4.55.

These binders were tested against MAGI3_2, Q5TCQ9 (assay: holdup assay). Details: plain residues with an end cap or a label only (N-terminal biotin on a linker: ado-ado).
Sequence of MAGI3_2, Q5TCQ9 (Q5TCQ9 398-503): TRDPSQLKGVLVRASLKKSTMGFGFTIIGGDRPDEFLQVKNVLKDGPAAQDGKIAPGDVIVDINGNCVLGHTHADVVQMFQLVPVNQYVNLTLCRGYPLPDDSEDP
Design: key: below the threshold = too weak to quantify, mostly under pKd 3.1 to 4
For QFTLRHWLKV [SLC6A3, Q01959], the pKd was “below the threshold”. Work on RELVMRVTTV [MARCHF4, Q9P2E8] yielded a pKd of 5.07.

Each binder was assayed against T5, NHERF3_3, Q5T2W1 (assay: holdup assay). Details: plain residues with an end cap or a label only (N-terminal biotin on a linker: ado-ado).
Design: key: below the threshold = too weak to quantify, mostly under pKd 3.1 to 4
For QFTLRHWLKV [SLC6A3, Q01959], the pKd was “below the threshold”. RELVMRVTTV [MARCHF4, Q9P2E8] was tested, and the pKd was “below the threshold”.

Each binder was assayed against T6, APBA1_2, Q02410 (assay: holdup assay). Details: plain residues with an end cap or a label only (N-terminal biotin on a linker: ado-ado).
Design: key: below the threshold = too weak to quantify, mostly under pKd 3.1 to 4
In the case of QFTLRHWLKV [SLC6A3, Q01959], the pKd is reported as “below the threshold”. Work on RELVMRVTTV [MARCHF4, Q9P2E8] yielded a pKd of 3.65.

Each binder was assayed against PDLIM1, O00151 (assay: holdup assay). Details: plain residues with an end cap or a label only (N-terminal biotin on a linker: ado-ado).
Sequence of PDLIM1, O00151 (O00151 1-87): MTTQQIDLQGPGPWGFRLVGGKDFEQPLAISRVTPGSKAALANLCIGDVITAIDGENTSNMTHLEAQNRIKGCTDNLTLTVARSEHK
Design: key: below the threshold = too weak to quantify, mostly under pKd 3.1 to 4
In the case of QFTLRHWLKV [SLC6A3, Q01959], the pKd is reported as “below the threshold”. For RELVMRVTTV [MARCHF4, Q9P2E8], the pKd was “below the threshold”.

The binders below were run against NHERF2_2, Q15599 (assay: holdup assay). Details: plain residues with an end cap or a label only (N-terminal biotin on a linker: ado-ado).
Sequence of NHERF2_2, Q15599 (Q15599 142-238): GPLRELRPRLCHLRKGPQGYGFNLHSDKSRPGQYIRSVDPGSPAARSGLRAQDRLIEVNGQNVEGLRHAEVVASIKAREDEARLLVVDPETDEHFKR
Design: key: below the threshold = too weak to quantify, mostly under pKd 3.1 to 4
In the case of QFTLRHWLKV [SLC6A3, Q01959], the pKd is reported as “below the threshold”. For RELVMRVTTV [MARCHF4, Q9P2E8], the pKd was “below the threshold”.

What follows are binders tested against IL16_4, Q14005 (assay: holdup assay). Details: plain residues with an end cap or a label only (N-terminal biotin on a linker: ado-ado).
Sequence of IL16_4, Q14005 (Q14005 1229-1329): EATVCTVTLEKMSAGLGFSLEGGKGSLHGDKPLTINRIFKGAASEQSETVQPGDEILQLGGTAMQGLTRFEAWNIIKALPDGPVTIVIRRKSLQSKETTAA
Design: key: below the threshold = too weak to quantify, mostly under pKd 3.1 to 4
For QFTLRHWLKV [SLC6A3, Q01959], the pKd was “below the threshold”. RELVMRVTTV [MARCHF4, Q9P2E8] was tested, and the pKd was “below the threshold”.

The binders below were run against GORASP2, Q9H8Y8 (assay: holdup assay). Details: plain residues with an end cap or a label only (N-terminal biotin on a linker: ado-ado).
Design: key: below the threshold = too weak to quantify, mostly under pKd 3.1 to 4
QFTLRHWLKV [SLC6A3, Q01959] gave a pKd of 4.56. RELVMRVTTV [MARCHF4, Q9P2E8] was tested, and the pKd was 5.54.

The binders below were run against T7, MPP6, Q9NZW5 (assay: holdup assay). Details: plain residues with an end cap or a label only (N-terminal biotin on a linker: ado-ado).
Design: key: below the threshold = too weak to quantify, mostly under pKd 3.1 to 4
In the case of QFTLRHWLKV [SLC6A3, Q01959], the pKd is reported as “below the threshold”. RELVMRVTTV [MARCHF4, Q9P2E8] showed a pKd of 3.59.

Each binder was assayed against T8, SNTA1, Q13424 (assay: holdup assay). Details: plain residues with an end cap or a label only (N-terminal biotin on a linker: ado-ado).
Design: key: below the threshold = too weak to quantify, mostly under pKd 3.1 to 4
QFTLRHWLKV [SLC6A3, Q01959] was tested, and the pKd was “below the threshold”. RELVMRVTTV [MARCHF4, Q9P2E8] gave a pKd of 5.1.

The binders below were run against GRIP2_3, Q9C0E4 (assay: holdup assay). Details: plain residues with an end cap or a label only (N-terminal biotin on a linker: ado-ado).
Sequence of GRIP2_3, Q9C0E4 (Q9C0E4 238-339): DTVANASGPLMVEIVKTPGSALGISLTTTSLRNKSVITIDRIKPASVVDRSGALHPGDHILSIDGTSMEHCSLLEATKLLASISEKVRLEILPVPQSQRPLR
Design: key: below the threshold = too weak to quantify, mostly under pKd 3.1 to 4
For QFTLRHWLKV [SLC6A3, Q01959], the pKd was “below the threshold”. RELVMRVTTV [MARCHF4, Q9P2E8] was tested, and the pKd was “below the threshold”.

These binders were tested against T9, APBA2_2, Q99767 (assay: holdup assay). Details: plain residues with an end cap or a label only (N-terminal biotin on a linker: ado-ado).
Design: key: below the threshold = too weak to quantify, mostly under pKd 3.1 to 4
QFTLRHWLKV [SLC6A3, Q01959] was tested, and the pKd was “below the threshold”. For RELVMRVTTV [MARCHF4, Q9P2E8], the pKd was “below the threshold”.

What follows are binders tested against TJP2_1, Q9UDY2 (assay: holdup assay). Details: plain residues with an end cap or a label only (N-terminal biotin on a linker: ado-ado).
Sequence of TJP2_1, Q9UDY2 (Q9UDY2 24-128): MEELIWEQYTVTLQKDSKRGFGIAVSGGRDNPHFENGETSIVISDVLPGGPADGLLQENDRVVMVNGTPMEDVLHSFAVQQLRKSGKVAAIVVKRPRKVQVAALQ
Design: key: below the threshold = too weak to quantify, mostly under pKd 3.1 to 4
With QFTLRHWLKV [SLC6A3, Q01959] the pKd was “below the threshold”. For RELVMRVTTV [MARCHF4, Q9P2E8], the pKd was 3.86.

These binders were tested against Inadl_2, Q8NI35 (assay: holdup assay). Details: plain residues with an end cap or a label only (N-terminal biotin on a linker: ado-ado).
Sequence of Inadl_2, Q8NI35 (Q8NI35 238-335): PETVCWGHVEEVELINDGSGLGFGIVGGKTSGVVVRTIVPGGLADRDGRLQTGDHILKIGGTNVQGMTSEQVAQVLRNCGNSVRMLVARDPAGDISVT
Design: key: below the threshold = too weak to quantify, mostly under pKd 3.1 to 4
With QFTLRHWLKV [SLC6A3, Q01959] the pKd was “below the threshold”. With RELVMRVTTV [MARCHF4, Q9P2E8] the pKd was “below the threshold”.
